The source of these data is patent US20190106509A1 (PROTHIX B V, published 2019).

Experiment [1] deals with T1, human coagulation factor XI (FXI) (human, UniProt P03951 19-625).
T1 construct: mature; also called plasma FXI; human FXI
In words: competition ELISA on coated human FXI; competitor biotinylated murine mAb anti-FXI 34.2.
Source text: The binding of the biotinylated antibody was detected with streptavidin-HRP (Sigma) and OPD substrate (Sigma. The reaction was stopped with 3M HCl, absorbance read at 490 nm on a Dynex Technologies MRX TC II plate reader and the binding curves plotted.

Experiment [2] has as its target T1, human coagulation factor XI (FXI). In words: SPR (Biacore), FXI immobilized on CM5 chip, mAb as analyte.
Procedure: (§1) Surface plasmon resonance was on a Biacore 2000 (GE Healthcare) equipped with a research-grade cm5 sensor chip to assess the affinity constants of the mAbs for FXI. Factor XI was immobilized using amine-coupling chemistry. the surface was activated for 7 min with a 1:1 mixture of 0.1 M N-hydroxysuccinimide and 0.1 M 3-(N,N-dimethylamino) propyl-N-ethylcarbodiimide at a flow rate of 10 l per min. The ligand at a concentration of 10 μg/ml in 10 mM sodium acetate, pH 5.5, was immobilized at a density of 1000 ru. An untreated flow cell served as a reference surface. All the surfaces were blocked with a 7 min injection of 1 M ethanolamine, pH 8.0. The following protocol was used to assess kinetic binding of the mAbs to FXI. […] The complex was allowed to associate and dissociate for 360 and 600 seconds, respectively. The surfaces were regenerated with a 10 seconds injection of 50 mM NaOH. Triplicate injections (in random order) of each sample and a buffer blank were flowed over the two surfaces. Data were collected at a rate of 1 Hz. The data were fit to a simple 1:1 interaction model using the global data analysis option available within BiaEvaluation 4.1 software.
Experiment [3] has the same target. In words: cell-based or functional assay.
Experiment [4] shares this target. In words: SPR (Biacore), FXI immobilized on CM5 chip, mAb as analyte. This is another data set of the same source.
Procedure: as §1

The term Kd denotes the concentration at which binding is half-saturated. Lower therefore signals tighter binding.

Read-outs that look alike come from different tables or passages of the source.

B1: composite human mAb VH2/Vκ2 (antibody, V domains shown)
VH: QVQLVQSGSELKKPGASVKLSCKASGYTFTRYWMHWVKQAPGQGLEWIGNIYPDSDSTNYDEKFRTRATLTADTSTSTAYMELSSLRSEDTAVYYCTRMGFYAMDYWGQGTTVTVSS
VL: NIVMTQSPSSLSASVGDRVTITCKASENVVTYVSWFQQKPGQAPKLLIYGASNRYTGVPDRFSGSGSATDFTLTISSLQAEDVADYHCGQSYSYPLTFGQGTKLEIKR
notes: Human IgG4 (S241P hinge mutant) heavy chain and human kappa light chain
Take B1: the “Relative IC50” value in experiment [1] was 0.92 relative to IC50 of mouse-human chimeric mAb anti-FXI 34.2. In experiment [2], this molecule displayed a dissociation constant (Kd) of 0.88 nM. Further, in experiment [3], the “APTT (% NPP)” value turned out to be 243 % NPP.

B2: composite human mAb VH2/Vκ4 (antibody, V domains shown)
VH: QVQLVQSGSELKKPGASVKLSCKASGYTFTRYWMHWVKQAPGQGLEWIGNIYPDSDSTNYDEKFRTRATLTADTSTSTAYMELSSLRSEDTAVYYCTRMGFYAMDYWGQGTTVTVSS
VL: DIVMTQSPSSLSASVGDRVTITCKASENVVTYVSWFQQKPGQAPKLLIYGASNRYTGVPDRFSGSGSGTDFTLTISSLQAEDVATYHCGQSYSYPLTFGQGTKLEIKR
notes: as for B1
For the molecule B2, the “Relative IC50” value in experiment [1] is 0.98 relative to IC50 of mouse-human chimeric mAb anti-FXI 34.2. In addition, the affinity in experiment [2], expressed as Kd, was 0.062 nM. In experiment [3], the “APTT (% NPP)” value stood at 259 % NPP.

B3: composite human mAb VH1/Vκ4 (antibody, V domains shown)
VH: QVQLVQSGSELKKPGASVKLSCKASGYTFTRYWMHWVKQAHGQGLEWIGNIYPDSDSTNYDEKFRTRATLTADTSTSTAYMHLSSLTSEDSAVYYCTRMGFYAMDYWGQGTSVTVSS
VL: DIVMTQSPSSLSASVGDRVTITCKASENVVTYVSWFQQKPGQAPKLLIYGASNRYTGVPDRFSGSGSGTDFTLTISSLQAEDVATYHCGQSYSYPLTFGQGTKLEIKR
notes: as for B1
Regarding B3, the “Relative IC50” value in experiment [1] was 0.89 relative to IC50 of mouse-human chimeric mAb anti-FXI 34.2. The same molecule showed a Kd in experiment [2] of 0.35 nM. In addition, the “APTT (% NPP)” value in experiment [3] stood at 260 % NPP.

B4: composite human mAb VH3/Vκ1 (antibody, V domains shown)
VH: QVQLVQSGSELKKPGASVKLSCKASGYTFTRYWMHWVRQAPGQGLEWIGNIYPDSDSTNYDEKFRTRVTLTADTSTSTAYMELSSLRSEDTAVYYCTRMGFYAMDYWGQGTTVTVSS
VL: NIVMTQSPSSLSASVGDRVTITCKASENVVTYVSWFQQKPGQAPKLLIYGASNRYTGVPDRFTGSGSATDFTLTISSLQAEDVADYHCGQSYSYPLTFGQGTKLEIKR
notes: as for B1
With B4, the “Relative IC50” value in experiment [1] was 0.87 relative to IC50 of mouse-human chimeric mAb anti-FXI 34.2. The same molecule returned a Kd in experiment [2] of 0.13 nM. In experiment [3], the “APTT (% NPP)” value was found to be 250 % NPP.

B5: composite human mAb VH2/Vκ1 (antibody, V domains shown)
VH: QVQLVQSGSELKKPGASVKLSCKASGYTFTRYWMHWVKQAPGQGLEWIGNIYPDSDSTNYDEKFRTRATLTADTSTSTAYMELSSLRSEDTAVYYCTRMGFYAMDYWGQGTTVTVSS
VL: NIVMTQSPSSLSASVGDRVTITCKASENVVTYVSWFQQKPGQAPKLLIYGASNRYTGVPDRFTGSGSATDFTLTISSLQAEDVADYHCGQSYSYPLTFGQGTKLEIKR
notes: as for B1
Consider B5, for which the “Relative IC50” value in experiment [1] is 0.84 relative to IC50 of mouse-human chimeric mAb anti-FXI 34.2. Binding in experiment [2] was put at a Kd of 0.24 nM. For the same molecule, the “APTT (% NPP)” value in experiment [3] was 252 % NPP.

B6: composite human mAb VH3/Vκ3 (antibody, V domains shown)
VH: QVQLVQSGSELKKPGASVKLSCKASGYTFTRYWMHWVRQAPGQGLEWIGNIYPDSDSTNYDEKFRTRVTLTADTSTSTAYMELSSLRSEDTAVYYCTRMGFYAMDYWGQGTTVTVSS
VL: DIVMTQSPSSLSASVGDRVTITCKASENVVTYVSWFQQKPGQAPKLLIYGASNRYTGVPDRFSGSGSGTDFTLTISSLQAEDVADYHCGQSYSYPLTFGQGTKLEIKR
notes: as for B1
For the molecule B6, the “Relative IC50” value in experiment [1] was 0.99 relative to IC50 of mouse-human chimeric mAb anti-FXI 34.2. The molecule also showed a dissociation constant Kd in experiment [2] of 0.081 nM. Moreover, the “APTT (% NPP)” value in experiment [3] is 256 % NPP.

B7: composite human mAb VH2/Vκ3 (antibody, V domains shown)
VH: QVQLVQSGSELKKPGASVKLSCKASGYTFTRYWMHWVKQAPGQGLEWIGNIYPDSDSTNYDEKFRTRATLTADTSTSTAYMELSSLRSEDTAVYYCTRMGFYAMDYWGQGTTVTVSS
VL: DIVMTQSPSSLSASVGDRVTITCKASENVVTYVSWFQQKPGQAPKLLIYGASNRYTGVPDRFSGSGSGTDFTLTISSLQAEDVADYHCGQSYSYPLTFGQGTKLEIKR
notes: as for B1
B7: the “Relative IC50” value in experiment [1] is 0.93 relative to IC50 of mouse-human chimeric mAb anti-FXI 34.2. The molecule further registered a Kd in experiment [2] of 0.51 nM. For the same molecule, the “APTT (% NPP)” value in experiment [3] amounted to 247 % NPP.

B8: composite human mAb VH3/Vκ4 (antibody, V domains shown)
VH: QVQLVQSGSELKKPGASVKLSCKASGYTFTRYWMHWVRQAPGQGLEWIGNIYPDSDSTNYDEKFRTRVTLTADTSTSTAYMELSSLRSEDTAVYYCTRMGFYAMDYWGQGTTVTVSS
VL: DIVMTQSPSSLSASVGDRVTITCKASENVVTYVSWFQQKPGQAPKLLIYGASNRYTGVPDRFSGSGSGTDFTLTISSLQAEDVATYHCGQSYSYPLTFGQGTKLEIKR
notes: as for B1
For B8, the “Relative IC50” value in experiment [1] was 1.13 relative to IC50 of mouse-human chimeric mAb anti-FXI 34.2. For the same molecule, in experiment [2], the affinity, expressed as Kd, was 0.42 nM. Further, in experiment [3], the “APTT (% NPP)” value turned out to be 255 % NPP.

B9: composite human mAb VH1/Vκ2 (antibody, V domains shown)
VH: QVQLVQSGSELKKPGASVKLSCKASGYTFTRYWMHWVKQAHGQGLEWIGNIYPDSDSTNYDEKFRTRATLTADTSTSTAYMHLSSLTSEDSAVYYCTRMGFYAMDYWGQGTSVTVSS
VL: NIVMTQSPSSLSASVGDRVTITCKASENVVTYVSWFQQKPGQAPKLLIYGASNRYTGVPDRFSGSGSATDFTLTISSLQAEDVADYHCGQSYSYPLTFGQGTKLEIKR
notes: as for B1
Consider B9, for which the “Relative IC50” value in experiment [1] is 0.69 relative to IC50 of mouse-human chimeric mAb anti-FXI 34.2. The Kd in experiment [2] was 0.25 nM. Also, the “APTT (% NPP)” value in experiment [3] was found to be 248 % NPP.

B10: composite human mAb VH1/Vκ1 (antibody, V domains shown)
VH: QVQLVQSGSELKKPGASVKLSCKASGYTFTRYWMHWVKQAHGQGLEWIGNIYPDSDSTNYDEKFRTRATLTADTSTSTAYMHLSSLTSEDSAVYYCTRMGFYAMDYWGQGTSVTVSS
VL: NIVMTQSPSSLSASVGDRVTITCKASENVVTYVSWFQQKPGQAPKLLIYGASNRYTGVPDRFTGSGSATDFTLTISSLQAEDVADYHCGQSYSYPLTFGQGTKLEIKR
notes: as for B1
With B10, in experiment [1], the “Relative IC50” value is 0.75 relative to IC50 of mouse-human chimeric mAb anti-FXI 34.2. The same molecule registered a Kd in experiment [2] of 0.12 nM. Besides, the “APTT (% NPP)” value in experiment [3] was 253 % NPP.

B11: composite human mAb VH1/Vκ3 (antibody, V domains shown)
VH: QVQLVQSGSELKKPGASVKLSCKASGYTFTRYWMHWVKQAHGQGLEWIGNIYPDSDSTNYDEKFRTRATLTADTSTSTAYMHLSSLTSEDSAVYYCTRMGFYAMDYWGQGTSVTVSS
VL: DIVMTQSPSSLSASVGDRVTITCKASENVVTYVSWFQQKPGQAPKLLIYGASNRYTGVPDRFSGSGSGTDFTLTISSLQAEDVADYHCGQSYSYPLTFGQGTKLEIKR
notes: as for B1
For the molecule B11, the “Relative IC50” value in experiment [1] was 0.91 relative to IC50 of mouse-human chimeric mAb anti-FXI 34.2. This molecule also yielded an equilibrium dissociation constant (Kd) in experiment [2] of 0.17 nM. The “APTT (% NPP)” value in experiment [3] worked out at 257 % NPP.

B12: composite human mAb VH3/Vκ2 (antibody, V domains shown)
VH: QVQLVQSGSELKKPGASVKLSCKASGYTFTRYWMHWVRQAPGQGLEWIGNIYPDSDSTNYDEKFRTRVTLTADTSTSTAYMELSSLRSEDTAVYYCTRMGFYAMDYWGQGTTVTVSS
VL: NIVMTQSPSSLSASVGDRVTITCKASENVVTYVSWFQQKPGQAPKLLIYGASNRYTGVPDRFSGSGSATDFTLTISSLQAEDVADYHCGQSYSYPLTFGQGTKLEIKR
notes: as for B1
Regarding B12, the “Relative IC50” value in experiment [1] is 0.87 relative to IC50 of mouse-human chimeric mAb anti-FXI 34.2. The same molecule showed a Kd in experiment [2] of 0.079 nM. Moreover, in experiment [3], the “APTT (% NPP)” value was found to be 255 % NPP.

B13: mouse mAb anti-FXI 34.2 (antibody, V domains shown)
VH: QVQLQQPGSELVRPGASVKLSCKASGYTFTRYWMHWVKQRHGQGLEWIGNIYPDSDSTNYDEKFRTKATLTADTSSSTAYMHLSSLTSEDSAVYYCTRMGFYAMDYWGQGTSVTVSS
VL: NIVMTQSPKSMSMSVGERVTLSCKASENVVTYVSWFQHKPEQSPKLLIYGASNRYTGVPDRFTGSGSATDFTLTISSVQAEDLADYHCGQSYSYPLTFGAGTKLELKR
notes: Mouse IgG purified from hybridoma supernatant by protein G
With B13, the affinity in experiment [4], expressed as Kd, was 0.2 nM.
